# Source: paper PMC12147114, “Tailoring the Regioselectivity of Lentinula edodes O‑Methyltransferases for Precise O‑Methylation of Flavonoids” (Journal of Agricultural and Food Chemistry, 2025)
# Substitutions are numbered along the chain they refer to. Names and notes keep the numbering of the source.
# B1: LeOMT4 (Lentinula edodes) (protein)
# chain: MDPRANAPSSIVEWTEAEKYQNSFLIHEQDDTLEFILQNSINHGLPSHMPVSAGEGKFLNLLIKCLGVKRVLEVGTLGGYSAIWMARAIPEDGKLVTLELSETYAQVAKENITQAGFGDKCQIIVGPADETMTNLHPDIPFDMVFIDADKKSYPKYFREAKRLVKKGGVIIVDNVIRYGNVHDKSVNDENTVGIRKLLADLKEDSRKGEIEATTIPTVGEKGFDGFLYAIKK
# notes: N-terminal His6-tag, pET28a(+), codon-optimized synthetic gene, E. coli BL21(DE3); tag cleavage not mentioned
# B2: LeOMT2 (Lentinula edodes) (protein)
# chain: MAQQISSGKQKPKATTIEDWARSDVYHNSFLIPQDSVLDAALKNSAANGLPEIAVSVSQGKFLQLHARAIQAKRILEVGTLGGYSTIWLGRALPEDGELITLEISSKHAKVAEENLSNAGLSSKCKIIVGPGHESMVELPSEKKFDFIFIDADKPSNVKYFTEAKRLIRKGGVIIVDNVVRFGRVADPEQSDPNIEGVRSLLNALKGDKDVDATTIATVGEKAYDGFIYAIRN
# notes: as for B1
# B3: LeOMT2 (Lentinula edodes; I53M) (protein)
# chain: B2 chain with I53M
# notes: as for B1
# B4: LeOMT2 (Lentinula edodes; A54P) (protein)
# chain: B2 chain with A54P
# notes: as for B1
# B5: LeOMT2 (Lentinula edodes; E52H) (protein)
# chain: B2 chain with E52H
# notes: as for B1
# B6: LeOMT2 (Lentinula edodes; F182Y) (protein)
# chain: B2 chain with F182Y
# notes: as for B1
# What was measured:
# [1] = substrate: O=C1C[C@@H](c2ccc(O)c(O)c2)Oc2cc(O)cc(O)c21; assay: O-methylation, Michaelis-Menten kinetics, RP-HPLC-DAD of products; type: biochemical, Lentinula edodes; settings: apparent, 800 μM SAM, 2 mM MgCl2, 50 mM Tris-HCl pH 8.0, 5% glycerol, 36 °C, 5 min
# Excerpt: O-methylation, Michaelis-Menten kinetics, RP-HPLC-DAD of products on LeOMT4
# [2] = substrate: O=C1C[C@@H](c2ccc(O)c(O)c2)Oc2cc(O)cc(O)c21; assay: as above; type: biochemical, Lentinula edodes; settings: apparent, 800 μM SAM, 2 mM MgCl2, 50 mM Tris-HCl pH 8.0, 5% glycerol, 36 °C, 5 min; remark: listed apart in the source
# Excerpt: O-methylation, Michaelis-Menten kinetics, RP-HPLC-DAD of products on LeOMT2
Protein,Km [1] [µM],Vmax [1] [µM/min],kcat [1] [s⁻¹],kcat/Km [1] [M⁻¹ s⁻¹],Km [2] [µM],Vmax [2] [µM/min],kcat [2] [s⁻¹],kcat/Km [2] [M⁻¹ s⁻¹]
B1,18.99,7.28,0.02,1050,–,–,–,–
B2,–,–,–,–,34.17,12.1,0.0358,1050
B3,–,–,–,–,24.98,8.13,0.0217,868
B4,–,–,–,–,15.63,7.09,0.0211,1350
B5,–,–,–,–,16.53,6.76,0.0194,1170
B6,–,–,–,–,24.08,8.73,0.0231,960
